# Measured values published in article PMC9482650, “Quantitative fragmentomics allow affinity mapping of interactomes” (Nature Communications, 2022).
# T1: APBA3_1, O96018
# T1 sequence (O96018 389-490, limits assumed, looked up): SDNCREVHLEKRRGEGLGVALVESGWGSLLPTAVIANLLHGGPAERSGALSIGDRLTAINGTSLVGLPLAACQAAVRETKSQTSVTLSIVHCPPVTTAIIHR
# T2: SIPA1L2, Q9P2F8
# T2 sequence (Q9P2F8 945-1036, limits assumed, looked up): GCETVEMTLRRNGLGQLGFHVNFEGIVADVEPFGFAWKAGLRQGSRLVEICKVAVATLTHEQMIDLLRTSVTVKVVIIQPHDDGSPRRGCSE
# T3: SNTG2, Q9NY99
# T3 sequence (Q9NY99 68-166, limits assumed, looked up): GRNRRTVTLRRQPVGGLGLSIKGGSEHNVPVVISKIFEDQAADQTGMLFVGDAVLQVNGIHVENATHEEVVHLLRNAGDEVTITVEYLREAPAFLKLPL
# T4: TIAM2, Q8IVF5
# T4 sequence (Q8IVF5 885-986, limits assumed, looked up): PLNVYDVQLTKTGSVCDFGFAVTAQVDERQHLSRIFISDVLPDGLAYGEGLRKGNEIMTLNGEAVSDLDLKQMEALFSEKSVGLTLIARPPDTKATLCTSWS
# T5: RHPN1, Q8TCX5
# T5 sequence (Q8TCX5 508-602, limits assumed, looked up): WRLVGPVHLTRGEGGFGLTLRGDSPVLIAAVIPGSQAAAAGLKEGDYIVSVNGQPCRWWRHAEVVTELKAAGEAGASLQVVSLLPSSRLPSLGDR
# T6: DVL3, Q92997
# T6 sequence (Q92997 244-331, limits assumed, looked up): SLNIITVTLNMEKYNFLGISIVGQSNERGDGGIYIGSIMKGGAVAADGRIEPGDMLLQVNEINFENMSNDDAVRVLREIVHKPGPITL
# T7: FRMPD1, Q5SYB0
# T7 sequence (Q5SYB0 52-145, limits assumed, looked up): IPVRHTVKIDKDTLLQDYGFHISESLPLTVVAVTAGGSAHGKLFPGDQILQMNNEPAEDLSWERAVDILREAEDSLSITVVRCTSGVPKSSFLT
# T8: HTRA4, P83105
# T8 sequence (P83105 378-476, limits assumed, looked up): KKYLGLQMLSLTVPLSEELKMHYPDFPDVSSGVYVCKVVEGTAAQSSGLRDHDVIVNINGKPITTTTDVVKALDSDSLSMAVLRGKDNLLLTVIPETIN
# T9: PTPN13_1, Q12923
# T9 sequence (Q12923 1088-1188, limits assumed, looked up): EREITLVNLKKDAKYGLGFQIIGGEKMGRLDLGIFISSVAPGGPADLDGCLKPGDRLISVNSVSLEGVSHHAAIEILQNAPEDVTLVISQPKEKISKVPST
# T10: RAPGEF6, Q8TEU7
# T10 sequence (Q8TEU7 525-625, limits assumed, looked up): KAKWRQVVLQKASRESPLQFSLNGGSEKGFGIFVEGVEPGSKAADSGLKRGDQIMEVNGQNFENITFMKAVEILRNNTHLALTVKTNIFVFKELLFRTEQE
# T11: PDZD7_3, Q9H5P4
# T11 sequence (Q9H5P4 857-944, limits assumed, looked up): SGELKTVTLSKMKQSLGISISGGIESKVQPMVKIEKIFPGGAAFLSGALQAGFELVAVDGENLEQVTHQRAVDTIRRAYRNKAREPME
# Columns and labels:
# Experiment in all cases: holdup assay
# Parameters in all cases: key: below the threshold = too weak to quantify, mostly under pKd 3.1 to 4
# Conditions in all cases: plain residues with an end cap or a label only (N-terminal biotin on a linker: ado-ado)
# [1] = molecular target: LNX1_2, Q8TBB1
# LNX1_2, Q8TBB1, sequence (Q8TBB1 371-470): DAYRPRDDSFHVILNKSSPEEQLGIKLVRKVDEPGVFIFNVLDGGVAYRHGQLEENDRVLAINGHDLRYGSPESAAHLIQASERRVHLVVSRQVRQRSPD
# [2] = molecular target: FRMPD2_3, Q68DX3
# FRMPD2_3, Q68DX3, sequence (Q68DX3 1073-1166): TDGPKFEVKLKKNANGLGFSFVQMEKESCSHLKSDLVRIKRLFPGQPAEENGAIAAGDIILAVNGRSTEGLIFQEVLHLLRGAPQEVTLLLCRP
# [3] = molecular target: DLG2_3, Q15700
# [4] = molecular target: ARHGEF12, Q9NZN5-2
# ARHGEF12, Q9NZN5-2, sequence (Q9NZN5 other isoform, or with tags, fused parts or gaps): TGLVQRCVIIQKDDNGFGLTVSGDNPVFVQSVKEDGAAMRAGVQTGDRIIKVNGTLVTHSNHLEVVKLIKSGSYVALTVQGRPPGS
# [5] = molecular target: Inadl_8, Q8NI35
# Inadl_8, Q8NI35, sequence (Q8NI35 1425-1530): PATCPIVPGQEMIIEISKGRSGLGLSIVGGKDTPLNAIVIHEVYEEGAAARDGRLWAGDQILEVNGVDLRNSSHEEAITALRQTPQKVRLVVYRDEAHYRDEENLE
# [6] = molecular target: LNX1_1, Q8TBB1
# LNX1_1, Q8TBB1, sequence (Q8TBB1 261-371): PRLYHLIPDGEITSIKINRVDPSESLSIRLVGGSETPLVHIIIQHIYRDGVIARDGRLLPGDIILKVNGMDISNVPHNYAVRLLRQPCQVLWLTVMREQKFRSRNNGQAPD
# [7] = molecular target: FRMPD4, Q14CM0
# FRMPD4, Q14CM0, sequence (Q14CM0 67-160): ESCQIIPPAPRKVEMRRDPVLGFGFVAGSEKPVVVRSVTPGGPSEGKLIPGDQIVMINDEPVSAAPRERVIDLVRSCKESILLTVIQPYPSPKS
# [8] = molecular target: FRMPD2_1, Q68DX3
# FRMPD2_1, Q68DX3, sequence (Q68DX3 770-861): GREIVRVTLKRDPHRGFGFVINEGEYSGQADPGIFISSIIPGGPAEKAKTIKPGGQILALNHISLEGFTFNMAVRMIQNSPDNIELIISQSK
# [9] = molecular target: GRIP2_4, Q9C0E4
# GRIP2_4, Q9C0E4, sequence (Q9C0E4 446-548): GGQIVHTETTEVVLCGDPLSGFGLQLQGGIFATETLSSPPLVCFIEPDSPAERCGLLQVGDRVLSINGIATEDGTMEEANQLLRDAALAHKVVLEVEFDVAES
# [10] = molecular target: T1, APBA3_1, O96018
# [11] = molecular target: FRMPD2_2, Q68DX3
# FRMPD2_2, Q68DX3, sequence (Q68DX3 944-1038): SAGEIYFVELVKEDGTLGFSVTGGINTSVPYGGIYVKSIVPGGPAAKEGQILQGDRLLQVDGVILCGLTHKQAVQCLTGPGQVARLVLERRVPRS
# [12] = molecular target: T2, SIPA1L2, Q9P2F8
# [13] = molecular target: NHERF4_4, Q86UT5
# NHERF4_4, Q86UT5, sequence (Q86UT5 464-550): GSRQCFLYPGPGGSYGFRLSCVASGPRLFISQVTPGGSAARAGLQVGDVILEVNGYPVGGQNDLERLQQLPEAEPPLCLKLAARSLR
# [14] = molecular target: Inadl_6, Q8NI35
# Inadl_6, Q8NI35, sequence (Q8NI35 1058-1167): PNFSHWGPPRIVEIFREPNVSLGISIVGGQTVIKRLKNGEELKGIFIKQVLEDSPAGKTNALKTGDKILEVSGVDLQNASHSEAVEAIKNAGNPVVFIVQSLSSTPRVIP
# [15] = molecular target: GRASP, Q7Z6J2
# GRASP, Q7Z6J2, sequence (Q7Z6J2 96-193): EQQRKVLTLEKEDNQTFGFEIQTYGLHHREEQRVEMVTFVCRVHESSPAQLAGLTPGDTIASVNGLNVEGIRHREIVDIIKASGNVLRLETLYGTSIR
# [16] = molecular target: T3, SNTG2, Q9NY99
# [17] = molecular target: T4, TIAM2, Q8IVF5
# [18] = molecular target: T5, RHPN1, Q8TCX5
# [19] = molecular target: MAGI2_6, Q86UL8
# MAGI2_6, Q86UL8, sequence (Q86UL8 1141-1229): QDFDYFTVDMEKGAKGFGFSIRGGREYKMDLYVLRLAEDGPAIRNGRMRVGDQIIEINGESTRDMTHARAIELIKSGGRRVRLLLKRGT
# [20] = molecular target: T6, DVL3, Q92997
# [21] = molecular target: T7, FRMPD1, Q5SYB0
# [22] = molecular target: PDZRN4_1, Q6ZMN7
# PDZRN4_1, Q6ZMN7, sequence (Q6ZMN7 213-318): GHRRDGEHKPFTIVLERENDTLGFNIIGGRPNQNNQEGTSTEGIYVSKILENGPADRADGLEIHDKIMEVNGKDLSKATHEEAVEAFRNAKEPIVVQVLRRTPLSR
# [23] = molecular target: T8, HTRA4, P83105
# [24] = molecular target: T9, PTPN13_1, Q12923
# [25] = molecular target: T10, RAPGEF6, Q8TEU7
# [26] = molecular target: T11, PDZD7_3, Q9H5P4
# [27] = molecular target: MAGI2_3, Q86UL8
# MAGI2_3, Q86UL8, sequence (Q86UL8 600-682): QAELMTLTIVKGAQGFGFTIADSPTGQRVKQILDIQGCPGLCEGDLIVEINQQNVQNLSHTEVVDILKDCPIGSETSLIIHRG
pKd [1],pKd [2],pKd [3],pKd [4],pKd [5],pKd [6],pKd [7],pKd [8],pKd [9],pKd [10],pKd [11],pKd [12],pKd [13],pKd [14],pKd [15],pKd [16],pKd [17],pKd [18],pKd [19],pKd [20],Binder,also measured
below the threshold,below the threshold,3.73,below the threshold,below the threshold,below the threshold,4.03,below the threshold,below the threshold,below the threshold,below the threshold,below the threshold,below the threshold,below the threshold,below the threshold,below the threshold,4.13,below the threshold,below the threshold,below the threshold,"QLSFNTDTLC [ABCA2, Q9BZC7]",pKd [21]: below the threshold; pKd [22]: below the threshold; pKd [23]: below the threshold; pKd [24]: below the threshold; pKd [25]: below the threshold; pKd [26]: below the threshold; pKd [27]: below the threshold
below the threshold,below the threshold,3.77,below the threshold,below the threshold,below the threshold,below the threshold,below the threshold,below the threshold,below the threshold,below the threshold,below the threshold,below the threshold,below the threshold,below the threshold,below the threshold,3.98,3.57,3.56,below the threshold,"EDLEDEWEVI [TECPR2, O15040]",pKd [21]: below the threshold; pKd [22]: below the threshold; pKd [23]: below the threshold; pKd [24]: below the threshold; pKd [25]: below the threshold; pKd [26]: 3.92; pKd [27]: below the threshold
below the threshold,below the threshold,3.74,below the threshold,below the threshold,below the threshold,below the threshold,below the threshold,below the threshold,below the threshold,below the threshold,below the threshold,below the threshold,below the threshold,4.16,below the threshold,4.13,below the threshold,below the threshold,below the threshold,"EKCGKEFSEF [PRKACA, P17612]",pKd [21]: below the threshold; pKd [22]: below the threshold; pKd [23]: below the threshold; pKd [24]: below the threshold; pKd [25]: below the threshold; pKd [26]: below the threshold; pKd [27]: below the threshold
